Data from US20200276330A1 (NANOMAB TECHNOLOGY, published 2020).
Where a chain is given by its changes, count along the chain named.

B1: Nanobody No. 1 (VHH)
VHH: QVQLQESGGGSVQTGGSLRLSCAASTSIYSNNYMAWFSQAPGKGREGVAAVYIDDGRPYYADSVKGRFTISLDSAKNTVYLQMNRLKPEDTAMYYCAAAPGPLSHNYWYTSANYDYWGQGTQVTVSS
notes: Expressed in E. coli WK6 and purified on a nickel column; not shown: HA and His tags (implied by anti-HA detection and nickel column)
B2: Nanobody No. 3 (VHH)
VHH: B1 VHH with A23T, A40S, I53M, V79M, R85S, H105R
notes: as for B1
B3: Nanobody No. 2 (VHH)
VHH: QVQLQESGGGSVQAGGSLRLSCAASGYTYSSDGMGWFRQTPGKEREGVAAISPTGRRTEYADSVKGRFTISRDNNKNMLSLQMNSLKPEDTGMYYCAREGSWSFSLANSAVRSWGQGTQVTVSS
notes: as for B1

The binders below were run against T1, human PD-L1 full-length protein on transiently transfected HEK293F cells (human, UniProt Q9NZQ7 19-290) (assay: flow cytometry competition: 10 ug nanobody + 5 ug hPD-1-Fc-Biotin on HEK293F cells expressing human PD-L1, SA-PE).
T1 construct: whole, on cells
T1 sequence (Q9NZQ7 19-290): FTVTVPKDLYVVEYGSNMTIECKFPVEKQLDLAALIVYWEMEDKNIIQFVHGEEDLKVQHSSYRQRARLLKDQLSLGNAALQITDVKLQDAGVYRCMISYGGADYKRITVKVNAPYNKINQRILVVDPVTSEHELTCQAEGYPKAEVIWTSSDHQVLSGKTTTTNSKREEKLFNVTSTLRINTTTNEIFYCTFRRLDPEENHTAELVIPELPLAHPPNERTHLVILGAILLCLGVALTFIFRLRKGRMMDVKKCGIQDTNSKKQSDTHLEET
Protocol: (1) 1×10⁶ HEK293F cells transiently transfected to express human PD-L1 full-length protein were collected and resuspended in 0.5% BSA-PBS buffer. And 10 μg of anti-PD-L1 nanobodies were added, and a positive control, a negative control and blank group (PBS) were set up. All samples were incubated with 5 μg of hPD-1-Fc-Biotin for 20 minutes at 4° C.
(2) The cells were washed twice by PBS and incubated with SA-PE from eBioscience for 20 minutes at 4° C. Cells were washed again with PBS twice and were detected by flow cytometry.
B1 was tested, and the “PD-1/PD-L1 Inhibitory effect” value was 19.3%.
B2 was tested, and the “PD-1/PD-L1 Inhibitory effect” value was 19.2%.
With B3 the “PD-1/PD-L1 Inhibitory effect” value was 19.3%.

Each binder was assayed against T2, PD-L1 (coated on the ELISA plate) (UniProt Q9NZQ7 19-238, limits assumed) (assay: ELISA with gradient dilution of nanobody on coated PD-L1).
T2 construct: also called B7-H1; CD274
T2 sequence (Q9NZQ7 19-238 limits assumed): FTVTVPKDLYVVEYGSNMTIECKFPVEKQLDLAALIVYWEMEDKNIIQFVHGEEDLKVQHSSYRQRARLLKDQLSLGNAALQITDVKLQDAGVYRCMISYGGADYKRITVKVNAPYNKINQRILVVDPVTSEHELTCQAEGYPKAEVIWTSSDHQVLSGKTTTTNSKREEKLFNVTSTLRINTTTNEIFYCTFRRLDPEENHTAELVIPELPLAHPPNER
Protocol: (1) The PD-L1 was coated on the plate, and IgG and NaHCO₃ (100 mM, pH8.2) were used as blank controls. All were incubated overnight at 4° C.
(3) The purified nanobodies were diluted, and reacted with coated PD-L1, IgG and NaHCO₃ at room temperature for 1 hour.
In the case of B1, the Kd is reported as 7.96 nM.
Work on B2 yielded a Kd of 4.46 nM.
B3 showed a Kd of 1.62 nM.

What follows are binders tested against T3, PD-L1 on HCC827 cells (high PD-L1 expression) and A549 cells (low PD-L1 expression) (UniProt Q9NZQ7 19-290, limits assumed) (assay: flow cytometry on A549 cells (low PD-L1 expression), anti-HA Alexa Fluor 488).
T3 construct: whole, on cells; HCC827 and A549 are known human lung cancer lines
T3 sequence (Q9NZQ7 19-290 limits assumed): as the sequence (Q9NZQ7 19-290) above
B1 was tested, and the “positive rate, A549” value was 11.5%.
B2 was tested, and the “positive rate, A549” value was 13.5%.
For B3, the “positive rate, A549” value was 32.6%.

These binders were tested against T3, PD-L1 on HCC827 cells (high PD-L1 …) (assay: flow cytometry on HCC827 cells (high PD-L1 expression), anti-HA Alexa Fluor 488).
In the case of B1, the “positive rate, HCC827” value is reported as 88.1%.
With B2 the “positive rate, HCC827” value was 66.5%.
B3 was tested, and the “positive rate, HCC827” value was 92.8%.
